Reference: KR20240052776A (dated 2024)

Experiments:
Experiment in all cases: flow cytometry, cell-based binding assay: yeast-displayed scFv with biotinylated MOG protein, streptavidin detection, anti-myc co-staining
[1] = target: T1, biotinylated cynomolgus monkey MOG-FC protein (Q9BGS7), expressed in mammalian cells (cynomolgus monkey, UniProt Q9BGS7 30-154, limits assumed, biotinylated (site not stated))
T1 construct: also called cynomolgus MOG-Fc; 사이노몰거스 원숭이 MOG-FC; not shown: Fc part
T1 sequence (looked up): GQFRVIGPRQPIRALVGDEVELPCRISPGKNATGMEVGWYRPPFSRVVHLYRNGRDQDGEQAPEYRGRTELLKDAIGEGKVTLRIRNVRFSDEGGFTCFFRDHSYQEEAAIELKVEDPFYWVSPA

[2] = target: T2, biotinylated human MOG-His (Uniprot Q16653), RND Systems (human, UniProt Q16653 30-154, biotinylated (site not stated))
T2 construct: A bought protein (RND Systems); also called 인간 MOG-His; not shown: His tag
T2 sequence (looked up): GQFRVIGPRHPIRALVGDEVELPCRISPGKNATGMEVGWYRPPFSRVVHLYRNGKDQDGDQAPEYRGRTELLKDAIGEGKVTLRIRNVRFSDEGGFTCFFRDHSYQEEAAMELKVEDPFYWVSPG

[3] = target: T3, biotinylated mouse MOG-His (Uniprot Q61885), RND Systems (mouse, UniProt Q61885 29-156, limits assumed, biotinylated (site not stated))
T3 construct: A bought protein (RND Systems); also called 마우스 MOG-His; not shown: His tag
T3 sequence (looked up): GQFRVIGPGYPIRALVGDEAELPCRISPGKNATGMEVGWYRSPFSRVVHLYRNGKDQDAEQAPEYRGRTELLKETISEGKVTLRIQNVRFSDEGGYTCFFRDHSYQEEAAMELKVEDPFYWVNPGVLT

Measured: binding result

B1: anti-MOG scFv of the invention, displayed on yeast cells (MOG-CAR 발현 효모 세포) (scFv, V domains shown)
VH: QVQLVQSGAEVKKPGSSVKVSCKASGGTFSSYAFSWVRQAPGQGLEWMGRIVPVVGTPNYAQKFQGRVTITADESTSTAYMELSSLRSEDTAVYYCARERLYAGYYFDHWGQGTLVTVSS
VL: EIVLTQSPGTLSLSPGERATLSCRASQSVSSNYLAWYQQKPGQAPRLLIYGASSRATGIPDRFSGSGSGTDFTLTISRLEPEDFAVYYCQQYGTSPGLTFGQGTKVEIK
notes: also called MOG-CAR expressing yeast cells
binds: [1] | [2] | [3]
